Biological target: the molecule itself
Assay: SEC

B1: Nwk^1-428∆tips (domain or fragment, Drosophila, UniProt X2JAU8 1-428, looked up)
chain: MQPPPRKGNYVKFLKNLHTEQVAKLQLKNQHECDLLEDIRQFTIKRSAVEKSYSESLLKISSQYLNKKIPNIPDIKMEGMEERWNMWSVWRTVLEENEKLARARLAAIEVFQQQIADEAKVLRDYKLAIAKRSLAGIVNVQKELHLSVGDVDKTKKSYFDEEHCAHDVRDKARDIEEKLKNLITSLQKNSARVTSRKELLEEKSSGARNDYVLSLAAANAHQNRYFTVDLQTTMTTMENYVFERVAEYLMLMGRTELLTCSATQNSFGKIRDQAQQLTREYNLQCCYLFYPVLKQHIQYDFEACDNDPVRKVTAEHESAAETLTKEAKNLAGRVVKENASIRENAKKLALCQSLRDSGQRTDPNDPNGPDLDTKIEEFRDQIRRSETEKTKAEACLQCLRDGGINVDEWVQEAENMGVQEL
stoichiometry N: 2

— PMC3727933 (Molecular Biology of the Cell, 2013)
